In IntAct's records for PubMed 21454543:

These substances were tested against rac1_human RAC1 (UniProt P63000).

Question: For “Leucine-rich repeat serine/threonine-protein kinase 2 (Homo sapiens), Q5S007 R1441C”, which “effect of a mutation on the interaction” value is on record?
Answer: Its value is “disrupting interaction”.

Question: How did the “effect of a mutation on the interaction” value turn out when “Leucine-rich repeat serine/threonine-protein kinase 2 (Homo sapiens), Q5S007 Y1699C” was run?
Answer: The value was “increasing interaction”.

Question: “Leucine-rich repeat serine/threonine-protein kinase 2 (Homo sapiens), Q5S007 I2020T” was tested. Which “effect of a mutation on the interaction” value did it give?
Answer: Its value is “increasing interaction”.

Question: “Leucine-rich repeat serine/threonine-protein kinase 2 (Homo sapiens), Q5S007 G2019S” was tested. Which “effect of a mutation on the interaction” value did it give?
Answer: The value was “decreasing interaction”.

Question: How did the “effect of a mutation on the interaction” value turn out when “Leucine-rich repeat serine/threonine-protein kinase 2 (Homo sapiens), Q5S007 K1906M” was run?
Answer: The value was “decreasing interaction”.

Each substance was assayed against lrrk2_human LRRK2 (UniProt Q5S007).

Question: Which “effect of a mutation on the interaction” value does the source give for “Ras-related C3 botulinum toxin substrate 1 (Homo sapiens) (from UniProt P63000) T17N” here?
Answer: Its value is “decreasing interaction”.
